Numbering of substitutions follows the chain as printed. In names and notes the source's numbering stands.

Sequences and labels used below:
B1: NSa1(+10)-A13BeLaK-C1: supercharged NSa1 monobody encoding BeLaK, N-terminal Cys; SEQ. ID. NO: 15 and 23 (protein)
chain 1: MGSSHHHHHHSSGTENLYFQGCVSSKPTKLRVVRXTPTSLKIKWDAPAKTVDYYVITYGETGRGGYAWQRFEVPGSKRTATIKGLKPGVDYTITVYAGYKGYPTYYSSPISINYRT
chain 2: B1 chain 1
modifications: BeLaK at position 13; N-terminal Cys; MOD_RES 35 X is N6-(2-Oxoazetidine-1-carbonyl)-L-lysine
notes: supercharged NSa1 monobody encoding BeLaK, N-terminal Cys; ID; NO: 15 and 23
B2: NSa1(+5)-A13BeLaK-Y92K-C1: supercharged NSa1 monobody encoding BeLaK; SEQ. ID. NO: 9 (protein)
chain: B1 chain 1 with K43S, K49V, T61K, R63S, R70E, K83S, Y114K
modifications: BeLaK at position 13; N-terminal Cys; MOD_RES 35 X is N6-(2-Oxoazetidine-1-carbonyl)-L-lysine
notes: supercharged NSa1 monobody encoding BeLaK; ID; NO: 9
B3: NSa1(+7)-A13BeLaK-Y92K-C1: supercharged NSa1 monobody encoding BeLaK; SEQ. ID. NO: 12 (protein)
chain: B1 chain 1 with K49V, T61K, R70E, K83S, Y114K
modifications: BeLaK at position 13; N-terminal Cys; MOD_RES 35 X is N6-(2-Oxoazetidine-1-carbonyl)-L-lysine
notes: supercharged NSa1 monobody encoding BeLaK; ID; NO: 12
B4: NSa1(+10)-A13BeLaK-Y92K-C1: supercharged NSa1 monobody encoding BeLaK; SEQ. ID. NO: 16 (protein)
chain: B1 chain 1 with Y114K
modifications: BeLaK at position 13; N-terminal Cys; MOD_RES 35 X is N6-(2-Oxoazetidine-1-carbonyl)-L-lysine
notes: supercharged NSa1 monobody encoding BeLaK; ID; NO: 16
B5: NSa1(+17)-A13BeLaK-Y92K-C1: supercharged NSa1 monobody encoding BeLaK; SEQ. ID. NO: 20 (protein)
chain: B1 chain 1 with S24K, K43S, D45K, A48K, E60K, R63S, E72R, T81K, Y114K
modifications: BeLaK at position 13; N-terminal Cys; MOD_RES 35 X is N6-(2-Oxoazetidine-1-carbonyl)-L-lysine
notes: supercharged NSa1 monobody encoding BeLaK; ID; NO: 20
B6: NSa1(+10)-A13BeLaK-C95: supercharged NSa1 monobody encoding BeLaK, C-terminal Cys; SEQ. ID. NO: 22 (protein)
chain: MGSSHHHHHHSSGTENLYFQGVSSKPTKLRVVRXTPTSLKIKWDAPAKTVDYYVITYGETGRGGYAWQRFEVPGSKRTATIKGLKPGVDYTITVYAGYKGYPTYYSSPISINYRTC
modifications: BeLaK at position 13; C-terminal Cys; MOD_RES 34 X is N6-(2-Oxoazetidine-1-carbonyl)-L-lysine
notes: supercharged NSa1 monobody encoding BeLaK, C-terminal Cys; ID; NO: 22
B7: 12VC1(+8)-A13BeLaK-Y92K: monobody 12VC1(+8) encoding BeLaK; SEQ. ID. NO: 2 (protein)
chain: MGSSHHHHHHSSGTENLYFQGVSSVPTKLKVVAXTPTSLLISWDAPAVTVFFYVITYGETGHGVGAFKAFKVPGSKSTATISGLKPGVDYTITVYARGYSKKGPYKPSPISINKRT
modifications: BeLaK non-natural residue at position 13; VARIANT 34 X is Ne-(tert-butoxycarbonyl) lysine or N6-(2-Oxoazetidine-1-carbonyl)-L-lysine
notes: monobody 12VC1(+8) encoding BeLaK; ID; NO: 2
B8: 12VC1(+10)-A13BeLaK-Y92K: monobody 12VC1(+10) encoding BeLaK; SEQ. ID. NO: 3 (protein)
chain: B7 chain with S24K, K30E, S42K, F51K, T60K, K68Q, S77R, S82K, K102Q
modifications: BeLaK non-natural residue at position 13; VARIANT 34 X is Ne-(tert-butoxycarbonyl) lysine or N6-(2-Oxoazetidine-1-carbonyl)-L-lysine
notes: monobody 12VC1(+10) encoding BeLaK; ID; NO: 3
B9: NSa1(+7)-A13BeLaK: supercharged NSa1 monobody encoding BeLaK; SEQ. ID. NO: 11 (protein)
chain: MGSSHHHHHHSSGTENLYFQGVSSKPTKLRVVRXTPTSLKIKWDAPAVTVDYYVITYGEKGRGGYAWQEFEVPGSKRTATISGLKPGVDYTITVYAGYKGYPTYYSSPISINYRT
modifications: BeLaK non-natural residue at position 13; MOD_RES 34 X is N6-(2-Oxoazetidine-1-carbonyl)-L-lysine
notes: supercharged NSa1 monobody encoding BeLaK; ID; NO: 11
B10: NSa1(+10)-A13BeLaK: supercharged NSa1 monobody encoding BeLaK; SEQ. ID. NO: 14 (protein)
chain: B9 chain with V48K, K60T, E69R, S82K
modifications: BeLaK non-natural residue at position 13; MOD_RES 34 X is N6-(2-Oxoazetidine-1-carbonyl)-L-lysine
notes: supercharged NSa1 monobody encoding BeLaK; ID; NO: 14
B11: NSa1(+5)-A13BeLaK-Y92K: supercharged NSa1 monobody encoding BeLaK; SEQ. ID. NO: 7 (protein)
chain: B9 chain with K42S, R62S, Y113K
modifications: BeLaK non-natural residue at position 13; MOD_RES 34 X is N6-(2-Oxoazetidine-1-carbonyl)-L-lysine
notes: supercharged NSa1 monobody encoding BeLaK; ID; NO: 7
B12: NSa1(+17)-A13BeLaK: supercharged NSa1 monobody encoding BeLaK; SEQ. ID. NO: 18 (protein)
chain: MGSSHHHHHHSSGTENLYFQGVKSKPTKLRVVRXTPTSLKISWKAPKKTVDYYVITYGKTGSGGYAWQRFRVPGSKRTAKIKGLKPGVDYTITVYAGYKGYPTYYSSPISINYRT
modifications: BeLaK non-natural residue at position 13; MOD_RES 34 X is N6-(2-Oxoazetidine-1-carbonyl)-L-lysine
notes: supercharged NSa1 monobody encoding BeLaK; ID; NO: 18
B13: NSa1(+17)-A13BeLaK-Y92K: supercharged NSa1 monobody encoding BeLaK; SEQ. ID. NO: 19 (protein)
chain: B12 chain with Y113K
modifications: BeLaK non-natural residue at position 13; MOD_RES 34 X is N6-(2-Oxoazetidine-1-carbonyl)-L-lysine
notes: supercharged NSa1 monobody encoding BeLaK; ID; NO: 19

The nature of this assay: Intramolecular (inter-strand) crosslinking yield of nanobody/monobodies by mass spectrometry. As to conditions: UAA-encoded monobodies, MS characterization (Table 5). The source says: To probe whether CATK-1 is suitable for inter-strand cross-linking in proteins containing the disulfide bond, we selected a small protein called nanobody NB1, a prototypical single-chain VHH antibody that binds specifically to GFP protein. Based on NB1 structure, there is one disulfide bond formed between Cys-24 and Cys-98, close to a proposed orthogonal crosslinking site at Val-4 and Tyr-106 (FIG. 5a, left). To test orthogonal crosslinking, we placed CATK-1 at Val-4 position to target Tyr-106 located 5.6 Å away on the opposing strand. The BocK- and CATK-1-encoded NB1 were successfully expressed at yields of 14.3 mg L^−1 and 3.5 mg L^−1, respectively (FIG. 5b, left). […] Separately, we also examined the utility of CATK-1 in effecting intramolecular crosslinking in an antibody mimic called monobody. Due to their lack of cysteine residues, small size (˜10 kDa), and evolvable binding affinity and specificity, monobodies represent an ideal protein scaffold for targeting protein-protein interactions in the cytosols of mammalian cells. However, monobodies are cell impermeable, severely limiting their potential. One strategy to potentially overcome this limitation is to combine protein surface supercharging with orthogonal crosslinking to increase stability in the endosomes and thus improve cytosolic delivery. To this end, we designed an overall +10 charged monobody NSa1, termed NSa1(+10), using the Supercharge protocol on ROSIE Rosetta Online Server and added an amber codon at Ala-13 position. Based on the NSa1 structure, A13CATK-1 is well-positioned to react with the proximal Tyr-92 on the opposing strand at C-terminus (FIG. 5a, right). Accordingly, the wild-type and NSa1(+10) mutant proteins encoding CATK-1 or BocK were expressed and purified in good yields (4.1-6.9 mg L^1; FIG. 5b, right). […] The crosslink-containing fragment was identified by LC/MS after trypsin digestion (FIG. 21).
To assess if BeLaK is suitable for orthogonal crosslinking of domain antibodies, we selected NSa1, a monobody-based SHP2 inhibitor, and placed BeLaK at position-13 of the N-terminal β-strand. A panel of supercharged NSa1 mutants carrying overall charges of +6, +8, +11, and +18, respectively, were designed using Supercharge protocol on ROSIE Rosetta Online Server with native NSa1 (˜2 charge) as a template. […] Thus, the supercharged monobodies encoding either BeLaK or BocK were expressed in good yields (2.2˜7.2 mg L^−1; FIG. 42). […] Furthermore, as the positive charge increases, the mobility decreases, likely due to reduced overall negative charge after association with the SDS molecules. MS analysis further confirmed the identities of the supercharged NSa1 mutants (FIG. 34c). Since the unreacted BeLaK-encoded monobodies share the same mass as the crosslinked ones, we treated the purified monobodies with excess β-mercapto-ethanol for 7 days, which accelerates the hydrolysis of the unreacted β-lactam and in turn adds +18 Da to protein mass, and monitored the intact mass change. Using this method, we determined orthogonal crosslinking yields to range from 5% for native NSa1 to more than 50% for +8/+11/+18 mutants (FIG. 42). We attribute the higher yields to the increased conformational dynamics, which promotes proximity-driven crosslinking reactions. The crosslinking sites in +11 and +18 mutants were mapped to Lys-21 and Lys-19, respectively, residues on the nearby β-strand, based on the identified fragment masses after trypsin digestion (FIG. 34d, FIG. 50).
Crosslinking yield determination of BeLaK-encoded NSa1 variants. To quantify the extent of crosslinking, β-mercaptoethanol (20 mM) was added at a final concentration of 2.58 mM (100 equiv, 3 μL) to a solution of purified NSa1 variants (25 μM, 30 μL) in elution buffer (50 mM Na2HPO4, pH=7.4, 300 mM NaCl, 250 mM imidazole). The mixture was incubated at 37° C. overnight. Afterwards, the mixture was removed from the incubator and allowed to incubate at 25° C. for 1 week.
The molecule B1 displayed a X-linking yield of 97%.

The molecule B2 returned a X-linking yield of 25%.

The molecule B3 yielded a X-linking yield of 60%.

The molecule B4 came in with a X-linking yield of 100%.

As to B5, the X-linking yield turned out to be 87%.

Turning to B6, the X-linking yield is on record as 22%.

B7: the X-linking yield was determined as 86%.

On to B8, for which the X-linking yield came out at 83%.

On to B9, for which the X-linking yield turned out to be 61%.

On to B10, for which the X-linking yield stood at 86%.

For B11, the X-linking yield is recorded as 53%.

B12 displayed a X-linking yield of 87%.

B13 displayed a X-linking yield of 89%.

The values are drawn from patent publication US20260117274A1, “ORTHOGONALLY CROSSLINKED PROTEINS, METHODS OF MAKING, AND USES THEREOF” (The Research Foundation for The State University of New York, priority 2022, published 2026).
